Measurements as given in US20060223158.

Key:
[1] = tested on: Cdk5 purified from insect Sf9 cultures
[2] = tested on: p35-His6 purified from insect Sf9 cultures

Sequence of CK1α (New England Biolabs) (P48729 2-337): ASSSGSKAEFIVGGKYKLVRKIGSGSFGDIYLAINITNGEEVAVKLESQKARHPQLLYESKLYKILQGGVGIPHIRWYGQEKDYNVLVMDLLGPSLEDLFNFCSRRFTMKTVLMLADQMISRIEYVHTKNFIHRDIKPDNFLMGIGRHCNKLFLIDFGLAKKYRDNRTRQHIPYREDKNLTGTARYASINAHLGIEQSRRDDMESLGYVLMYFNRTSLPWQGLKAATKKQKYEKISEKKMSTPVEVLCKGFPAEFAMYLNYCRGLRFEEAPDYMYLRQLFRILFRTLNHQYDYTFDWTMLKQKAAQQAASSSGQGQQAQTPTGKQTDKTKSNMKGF

CK1α (New England Biolabs)
32P incorporation, in vitro phosphorylation, SDS-PAGE and autoradiography [1]: phosphorylated Cdk5 catalytic subunit to a much lesser extent | 32P incorporation, in vitro phosphorylation, SDS-PAGE and autoradiography [2]: CKI was able to efficiently phosphorylate p25 | stoichiometry of phosphorylation in vitro [2]: phosphorylation of p25 to approximately 2 mol/mol
